The values that follow come from patent publication US12729368B2, “Methods and compositions for generating oligodendrocyte progenitor cells” (Trailhead Biosystems Inc., priority 2022, dated 2026).

“And” between values parts separate entries of the source, which are not always exact repeats. Equal entries are not always repeated.

What all share (format): cell-based, human
Assay [1] concerns OPCs. In words: HD-DoE 8-factor model for stage 4 on OPCs. As to conditions: optimized for maximal expression of CNP at 1339; positive. As to the method:
(§1) To engineer the recipe of stage 4 of differentiation, 48 or 96 different combinations of effectors generated using Design-of-Experiments compression through D-optimality were robotically prepared. The effector combinations were prepared in a basal media and were subsequently added to the cells, which were treated with the stage 1, stage 2 and stage 3 differentiation media as described in the earlier examples to generate OPCs. […] Solutions within the tested space could then be explored to address desirability.

Assay [2] concerns OPCs. In words: HD-DoE 12-factor model for stage 4 on OPCs, 6 days in culture. As to conditions: positive. As to the method: as §1, with “desirability. […] Benarroch (2009) Neurology 72:1779-1785; Shi et al. (2019) Exp Ther Med, 18:1258-1266).” for “desirability.”
For assay [3], the system named is stage 2 early-OPCs. In words: HD-DoE 8-factor model for stage 3 (version 1) on stage 2 early-OPCs. As to conditions: optimized for maximum expression of OLIG1 at 256; positive impact. The protocol: To further differentiate the cells to an oligodendrocyte progenitor identity, additional HD-DoE experiments were performed on the cells that were cultured in stage 1 and stage 2 differentiation media. After 3 days, gene expression of cells in different combinatorial conditions were investigated. At this time, we focused on maximal expression of signature oligodendrocyte progenitor genes such as SOX10, OLIG1 and PDGFRa (Goldman and Kuypers (2015) Development 142:3983-95; Marques et al. (2016) Science 352:1326-1329). In one 8-factor model, individual and combinatorial effects of LDN193189, SUN 11602, Activin A, Biotin, TTNPB, Isoproterenol, linoleic acid and T3+T4 were tested.
The same model was also optimized for maximum expression of PDGFRa at 3510.9. Two factor specifically, TTNPB and Linoleic acid determined the expression level of PDGFRa with factor contribution of 71.6 and 22.1, respectively (FIG. 17). […] The model was also optimized for highest expression of SOX10 at 18.8. In this optimization, TTNPB was the only input that could elevate the expression level of the selected gene (FIG. 18).
Dynamic profile analysis was utilized to explore combination sets that can optimize expression of all three selected genes. […]

The subject of assay [4] is stage 2 early-OPCs. In words: HD-DoE 12-factor model for stage 3 (version 1) on stage 2 early-OPCs. The conditions noted are these: positive. The protocol:
In another model, the effects of Activin A and TTNPB along with LDN193189, MHY1485, PDGF-AA, AICAR, FGF2, CHIR99021, DBZ, MK2206, Purmorphamine and T3+T4 were tested on gene profile of differentiating cells. When this model was optimized for maximum expression of SOX10 at 54.7, we observed Activin A again had positive regulatory impact on its expression, with factor contribution of 4.7. Other positive factors included MK2206, with the highest factor contribution at 16.2, MHY1485 at 11.49, CHIR99021 at 9.6, DBZ at 9.3, FGF2 at 3.6 and PDGF-AA, with factor contribution less than 3 (FIG. 20).
In this model, we also investigated the conditions of expression of another important OPC gene, CSPG4 (Goldman and Kuypers (2015) Development 142:3983-95: van Tilborg et al. (2018) Glia 66:221-238).
Dynamic profile analysis was used to better assess the impact of the factors on our selected genes and find the combination set that can optimize their expression (FIG. 22). According to this analysis, even though Activin A has a positive effect on SOX10, it decreases level of PDGFRa and OLIG1. […]

B1: NT-3: TrkC agonist (protein, UniProt P20783 139-257, looked up)
Neurotrophin-3: YAEHKSHRGEYSVCDSESLWVTDKSSAIDIRGHQVTVLGEIKTGNSPVKQYFYETRCKEARPVKNGCRGIDDKHWNSQCKTSQTYVRALTSENNKLVGWRWIRIDTSCVCALSRKIGRT
In the case of B1, the factor contribution with OPCs [1] is 24; in the assay on OPCs [2] (optimized for CNP at 1790) it was 13 and 13.3; with OPCs [2] (optimized for PLP1 at 3600) it was 7.

B2: Activin A: an activator of one of the receptors of TGF-b superfamily (protein, UniProt P08476 311-426, looked up)
Inhibin beta A chain: GLECDGKVNICCKKQFFVSFKDIGWNDWIIAPSGYHANYCEGECPSHIAGTSGSSLSFHSTVINHYRMRGHSPFANLKSCCVPTKLRPMSMLYYDDGQNIIKKDIQNMIVEECGCS
Consider B2, for which the values for the factor contribution in the assay on stage 2 early-OPCs [3], with stage 2 early-OPCs [4] (optimized for maximum expression of CSPG4 at 38.6) and in the assay on stage 2 early-OPCs [4] (optimized for maximum expression of SOX10 at 54.7) were 50.2, 9.3 and 4.7, respectively.
